The values below are quoted from earlier work in paper PMC10522771.

In one data set the target is CBP TAZ2 (Homo sapiens) (UniProt Q92793).
The next data set deals with CBP TAZ1 (Homo sapiens) (UniProt Q92793).
CBP TAZ1 (Homo sapiens), sequence (Q92793 340-439): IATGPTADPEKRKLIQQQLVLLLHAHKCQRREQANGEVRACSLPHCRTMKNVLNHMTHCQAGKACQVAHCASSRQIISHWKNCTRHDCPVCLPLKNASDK

MITF N-terminal TAD, sequence (O75030 224-295): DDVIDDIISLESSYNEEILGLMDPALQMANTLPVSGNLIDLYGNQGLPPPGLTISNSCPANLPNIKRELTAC
CBP TAZ2 (Homo sapiens), sequence (Q92793 1764-1855): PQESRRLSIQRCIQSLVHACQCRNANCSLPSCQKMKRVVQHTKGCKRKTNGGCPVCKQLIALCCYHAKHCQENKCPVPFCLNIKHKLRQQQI

Take “MITF N-terminal TAD (from UniProt O75030)”: the equilibrium dissociation constant (Kd) – broadly, the free concentration of one partner at which half of the binding sites on the other are occupied at equilibrium, for simple one-to-one binding – with CBP TAZ2 (Homo sapiens) is 1.2 µM; with CBP TAZ1 (Homo sapiens) it was 6.7 µM.
